In PMC8406418 (2021):

Molecular target: T1, kappa-opioid receptor (KOR-EGFP) (Mus musculus, UniProt P33534)
T1 chain: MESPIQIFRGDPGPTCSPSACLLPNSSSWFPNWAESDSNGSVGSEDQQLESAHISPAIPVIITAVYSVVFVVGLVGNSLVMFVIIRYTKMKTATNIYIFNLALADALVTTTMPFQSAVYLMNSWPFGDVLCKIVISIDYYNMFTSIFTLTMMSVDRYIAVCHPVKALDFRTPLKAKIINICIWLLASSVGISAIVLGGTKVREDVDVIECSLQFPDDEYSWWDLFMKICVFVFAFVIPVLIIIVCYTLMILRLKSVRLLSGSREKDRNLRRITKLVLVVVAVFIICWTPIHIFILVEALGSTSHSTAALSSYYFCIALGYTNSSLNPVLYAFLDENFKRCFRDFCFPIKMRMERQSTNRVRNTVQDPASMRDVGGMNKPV
Assay: radioligand displacement ([3H]-diprenorphine)

## MAWQGLVLAACLL [dynorphin A1-13 1-13]
  Ki: 300 pM
